Measurements taken from patent US20260234242A1 (HAINAN SIMCERE ZAIMING PHARMACEUTICAL, published 2026).

Biological target: T1, human CDH6 on tumor cells (OVCAR3 cells, PA-1 cells) (human, UniProt P55285 54-790)
T1 sequence: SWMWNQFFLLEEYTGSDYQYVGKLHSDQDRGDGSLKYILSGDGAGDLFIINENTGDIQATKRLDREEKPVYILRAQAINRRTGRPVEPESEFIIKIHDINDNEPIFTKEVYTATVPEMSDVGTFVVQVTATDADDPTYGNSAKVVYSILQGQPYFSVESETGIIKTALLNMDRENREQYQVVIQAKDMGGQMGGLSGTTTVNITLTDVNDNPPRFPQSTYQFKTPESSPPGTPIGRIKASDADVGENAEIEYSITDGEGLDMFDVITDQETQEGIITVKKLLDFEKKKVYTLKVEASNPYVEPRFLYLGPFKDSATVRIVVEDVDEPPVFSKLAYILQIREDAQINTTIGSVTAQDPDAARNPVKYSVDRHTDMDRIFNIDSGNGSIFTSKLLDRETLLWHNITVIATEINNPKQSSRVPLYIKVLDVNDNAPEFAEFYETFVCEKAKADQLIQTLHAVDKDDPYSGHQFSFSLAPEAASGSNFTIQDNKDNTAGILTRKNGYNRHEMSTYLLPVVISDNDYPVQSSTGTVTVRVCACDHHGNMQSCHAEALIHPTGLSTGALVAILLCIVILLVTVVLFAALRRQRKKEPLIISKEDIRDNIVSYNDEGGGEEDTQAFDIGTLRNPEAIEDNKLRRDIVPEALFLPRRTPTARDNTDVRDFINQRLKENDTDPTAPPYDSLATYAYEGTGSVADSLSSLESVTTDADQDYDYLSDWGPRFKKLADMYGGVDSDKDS
Assay: FACS, PA-1 cells
Method in brief: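 Chimeric or humanized hCDH6-14 antibody dilutions were incubated with PA-1 cells (moderate CDH6 expressors; OVCAR3 as high expressors) in PBS + 2% FBS for 1 h at 4 °C. A second 1 h step at 4 °C followed. Flow-cytometric MFI was curve-fitted to give EC50.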

B1: CHI-CDH6-14 (antibody, human IgG1, kappa, V domains shown)
VH: QIQLQQSGPELVKPGTSVKISCKASGYTFTDNYINWVRQRPGQGLEWIGWIYPGTGNSYYNEKFKGKATLTVDTSSSTAYMQFSSLTSEDSAVYLCASSYGDSFDYWGQGTTLTVSS
VL: DIQMTQTTSSLSASLGNRVTISCRASQDIRNYLNWYQQKPDGTFKLLISYTSRLHSGVPSRFSGSGSGTDYSLTVSNLEPEDIATYYCQQYSQLPWTFGGGSRLEIKR
notes: also called CHI-hCDH6-14; CH1-CDH6-14
EC50: 0.27 nM | Max MFI: 4260 MFI
